The values that follow come from paper PMC10967246 (2023).

What all share (experiment): MST
One experiment concerns the target T1, ΔREDGluTR-6xHis (Arabidopsis thaliana).
T1 chain: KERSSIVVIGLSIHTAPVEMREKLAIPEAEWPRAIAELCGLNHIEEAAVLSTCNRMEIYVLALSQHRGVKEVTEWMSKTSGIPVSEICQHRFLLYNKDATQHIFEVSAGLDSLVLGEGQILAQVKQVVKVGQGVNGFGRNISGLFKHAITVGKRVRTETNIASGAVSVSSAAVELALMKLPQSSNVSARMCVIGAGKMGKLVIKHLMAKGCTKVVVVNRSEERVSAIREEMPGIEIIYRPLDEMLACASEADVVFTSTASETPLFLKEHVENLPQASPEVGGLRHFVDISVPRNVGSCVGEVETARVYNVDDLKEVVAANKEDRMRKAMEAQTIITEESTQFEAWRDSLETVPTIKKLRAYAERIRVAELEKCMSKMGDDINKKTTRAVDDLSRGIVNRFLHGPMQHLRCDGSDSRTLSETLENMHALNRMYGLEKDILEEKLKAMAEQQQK

Experiment [1] concerns the target T2, recombinant His-tagged full-length GluTR1 (Arabidopsis, UniProt P42804 62-543).
T2 chain: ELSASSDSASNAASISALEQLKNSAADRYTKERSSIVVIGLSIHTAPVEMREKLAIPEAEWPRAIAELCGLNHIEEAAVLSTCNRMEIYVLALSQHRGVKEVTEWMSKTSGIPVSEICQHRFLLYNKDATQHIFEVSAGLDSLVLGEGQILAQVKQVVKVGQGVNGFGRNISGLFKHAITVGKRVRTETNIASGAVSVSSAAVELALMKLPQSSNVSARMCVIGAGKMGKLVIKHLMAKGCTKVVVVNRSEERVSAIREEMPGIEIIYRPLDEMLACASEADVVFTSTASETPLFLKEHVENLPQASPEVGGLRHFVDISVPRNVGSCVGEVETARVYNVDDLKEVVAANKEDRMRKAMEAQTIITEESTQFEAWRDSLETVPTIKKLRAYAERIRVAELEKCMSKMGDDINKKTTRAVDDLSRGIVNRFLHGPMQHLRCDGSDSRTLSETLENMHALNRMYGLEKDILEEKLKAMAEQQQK

Experiment [2] concerns the target T3, recombinant His-tagged PORC (Arabidopsis, UniProt O48741 68-401).
T3 chain: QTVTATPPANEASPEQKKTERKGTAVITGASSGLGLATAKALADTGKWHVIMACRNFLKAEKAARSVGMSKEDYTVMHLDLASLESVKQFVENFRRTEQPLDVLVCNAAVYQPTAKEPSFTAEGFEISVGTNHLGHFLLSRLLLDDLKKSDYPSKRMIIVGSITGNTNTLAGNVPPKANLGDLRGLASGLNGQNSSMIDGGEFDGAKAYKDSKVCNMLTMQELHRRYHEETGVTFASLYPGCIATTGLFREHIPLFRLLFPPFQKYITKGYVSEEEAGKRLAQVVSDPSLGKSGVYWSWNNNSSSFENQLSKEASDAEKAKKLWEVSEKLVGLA

The target of experiment [3] is T4, recombinant His-tagged PORA (Arabidopsis, UniProt Q42536 70-405).
T4 chain: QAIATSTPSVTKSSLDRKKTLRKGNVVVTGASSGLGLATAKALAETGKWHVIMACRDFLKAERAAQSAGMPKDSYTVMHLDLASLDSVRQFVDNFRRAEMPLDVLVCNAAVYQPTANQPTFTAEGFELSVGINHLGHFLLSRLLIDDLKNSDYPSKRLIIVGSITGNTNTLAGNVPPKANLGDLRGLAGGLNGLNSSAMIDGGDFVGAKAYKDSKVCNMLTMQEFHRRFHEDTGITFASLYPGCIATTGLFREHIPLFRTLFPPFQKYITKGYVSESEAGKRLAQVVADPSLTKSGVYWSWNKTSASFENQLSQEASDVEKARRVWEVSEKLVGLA

In experiment [4] the target is T5, linker domain followed by the TPR domain of FLU, link TPR_((FLU)) (Arabidopsis).
T5 chain: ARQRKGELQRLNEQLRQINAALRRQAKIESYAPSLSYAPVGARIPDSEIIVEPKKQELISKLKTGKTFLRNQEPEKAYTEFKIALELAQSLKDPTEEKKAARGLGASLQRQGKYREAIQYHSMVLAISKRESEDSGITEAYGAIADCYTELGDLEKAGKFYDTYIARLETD

The next experiment deals with GST-tag (Schistosoma japonicum).
The target of experiment [5] is T6, TPR domain of FLU, TPR_((FLU)), GST-tagged (Arabidopsis).
T6 chain: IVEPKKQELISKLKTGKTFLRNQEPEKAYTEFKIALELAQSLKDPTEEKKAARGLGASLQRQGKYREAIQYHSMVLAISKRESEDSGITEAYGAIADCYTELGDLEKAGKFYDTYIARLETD

Experiment [6] deals with T7, recombinant His-tagged PORB (Arabidopsis, UniProt P21218 67-401).
T7 chain: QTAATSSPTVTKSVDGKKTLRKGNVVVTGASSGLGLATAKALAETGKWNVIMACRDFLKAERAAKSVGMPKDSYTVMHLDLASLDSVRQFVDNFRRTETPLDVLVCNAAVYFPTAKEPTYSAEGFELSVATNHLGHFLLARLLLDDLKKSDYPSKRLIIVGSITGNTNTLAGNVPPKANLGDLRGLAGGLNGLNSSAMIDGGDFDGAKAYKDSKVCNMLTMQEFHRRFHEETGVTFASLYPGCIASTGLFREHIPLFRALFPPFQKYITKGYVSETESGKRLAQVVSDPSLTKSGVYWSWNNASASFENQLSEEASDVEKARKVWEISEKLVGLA

Experiment [7] has as its target T8, recombinant His-tagged GluTR-binding protein (GBP) (Arabidopsis, UniProt Q9LU39 43-317).
T8 chain: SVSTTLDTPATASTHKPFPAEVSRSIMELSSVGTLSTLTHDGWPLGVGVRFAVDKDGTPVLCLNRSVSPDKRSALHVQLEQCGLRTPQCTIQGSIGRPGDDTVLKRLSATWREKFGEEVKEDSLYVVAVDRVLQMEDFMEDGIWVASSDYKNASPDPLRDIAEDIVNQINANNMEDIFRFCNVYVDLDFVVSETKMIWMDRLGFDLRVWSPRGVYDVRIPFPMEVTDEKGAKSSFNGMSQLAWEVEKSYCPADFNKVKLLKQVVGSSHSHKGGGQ

B1: recombinant 6×His-tagged TTP1, RED-NHS labelled (natural protein)
chain: MLMTLAATTSVSFNSKLLLFRIRCSDSNPKRGFGSKKEEKDPALQQRKSSSKQSVSVPRKAPGLNTQFEGKSGRSFDIDFDERLENIRRSALEQKKTEVVKEFGPIDYDAPVKSDQKTIGLGTKVGVGIAVVVFGLVFALGDFLPTGSDSPTKNTTVVKNQISEEEKATLQQRLKEFETTLNGTPQDQAALEGAAVTLTELGDYSRAAAFLEKLAKERPTDPDVFRLLGEVNYELNNYEGSIAAYKISEKVSKGIDLEVTRGLMNAYLAAKKPDEAVKFLLDTRERLNTKKTSTTDSVTDETNLDPIQVELLLGKAYSDWGHISDAIAVYDQLISAHPEDFRGYLAKGIILRENGSRGDAERMFIQARFFAPNKAKALVDRYSKL
modifications: labelled with the RED-NHS Protein Labeling Kit, degree of labeling approximately 1.0
As for B1, the equilibrium dissociation constant (Kd) in the experiment with ΔREDGluTR-6xHis is 3050 nM; in experiment [1], 295 nM; in [2], 112 nM; in experiment [3] it was 1310 nM; in [4], 1610 nM; with GST-tag, greater than 400000 nM. Besides, the Kd in experiment [5] is 7900 nM; in experiment [6], 476 nM; in experiment [7], 266 nM.

In general, Kd refers to the concentration at which binding is half-saturated.
